Consider two molecules from publication doi:10.1101/803361 (bioRxiv, 2019).

The stoichiometry N is the number of molecules, sites or subunits per partner or assembly.

The target of series [1] is Human Hsc70 (HSPA8), wild type (human, UniProt P11142 1-646). Kind of series: HDX-MS.
Series [2] concerns the molecule itself. Put plainly: SEC + native gel or EMSA. On the technique in general: Mobility shift assays separate free from complexed probe on a gel.

Chain of Human Hsc70 (HSPA8), wild type (P11142 whole entry): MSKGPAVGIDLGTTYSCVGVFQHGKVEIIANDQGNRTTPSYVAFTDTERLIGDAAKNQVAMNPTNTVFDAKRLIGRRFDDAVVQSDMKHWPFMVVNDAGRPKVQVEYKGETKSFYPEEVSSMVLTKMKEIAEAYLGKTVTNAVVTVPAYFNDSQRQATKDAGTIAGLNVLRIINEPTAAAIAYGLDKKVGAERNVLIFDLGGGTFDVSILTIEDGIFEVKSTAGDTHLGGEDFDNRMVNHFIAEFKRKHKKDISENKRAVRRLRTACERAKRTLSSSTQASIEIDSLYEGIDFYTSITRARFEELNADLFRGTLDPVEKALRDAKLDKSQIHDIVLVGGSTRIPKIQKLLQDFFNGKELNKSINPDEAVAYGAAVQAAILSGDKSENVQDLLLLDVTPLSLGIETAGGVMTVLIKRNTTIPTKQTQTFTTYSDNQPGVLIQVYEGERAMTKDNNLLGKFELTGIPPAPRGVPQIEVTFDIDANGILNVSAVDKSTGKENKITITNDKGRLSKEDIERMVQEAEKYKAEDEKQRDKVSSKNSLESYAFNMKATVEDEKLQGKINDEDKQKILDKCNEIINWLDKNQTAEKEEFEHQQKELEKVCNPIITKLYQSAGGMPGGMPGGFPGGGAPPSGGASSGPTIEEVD

B1: Human heat shock transcription factor 1 (Hsf1), wild type (natural protein)
chain: MDLPVGPGAAGPSNVPAFLTKLWTLVSDPDTDALICWSPSGNSFHVFDQGQFAKEVLPKYFKHNNMASFVRQLNMYGFRKVVHIEQGGLVKPERDDTEFQHPCFLRGQEQLLENIKRKVTSVSTLKSEDIKIRQDSVTKLLTDVQLMKGKQECMDSKLLAMKHENEALWREVASLRQKHAQQQKVVNKLIQFLISLVQSNRILGVKRKIPLMLNDSGSAHSMPKYSRQFSLEHVHGSGPYSAPSPAYSSSSLYAPDAVASSGPIISDITELAPASPMASPGGSIDERPLSSSPLVRVKEEPPSPPQSPRVEEASPGRPSSVDTLLSPTALIDSILRESEPAPASVTALTDARGHTDTEGRPPSPPPTSTPEKCLSVACLDKNELSDHLDAMDSNLDNLQTMLSSHGFSVDTSALLDLFSPSVTVPDMSLPDLDSSLASIQELLSPQEPPRPPEAENSSPDSGKQLVHYTAQPLFLLDPGSVDTGSNDLPVLFELGEGSYFSEGDGFAEDPTISLLTGSEPPKAKDPTVS
Regarding B1, the binding result in series [1] is listed as “binds”.

B2: Hsf1-I190S,I194S (natural protein)
chain: MDLPVGPGAAGPSNVPAFLTKLWTLVSDPDTDALICWSPSGNSFHVFDQGQFAKEVLPKYFKHNNMASFVRQLNMYGFRKVVHIEQGGLVKPERDDTEFQHPCFLRGQEQLLENIKRKVTSVSTLKSEDIKIRQDSVTKLLTDVQLMKGKQECMDSKLLAMKHENEALWREVASLRQKHAQQQKVVNKLSQFLSSLVQSNRILGVKRKIPLMLNDSGSAHSMPKYSRQFSLEHVHGSGPYSAPSPAYSSSSLYAPDAVASSGPIISDITELAPASPMASPGGSIDERPLSSSPLVRVKEEPPSPPQSPRVEEASPGRPSSVDTLLSPTALIDSILRESEPAPASVTALTDARGHTDTEGRPPSPPPTSTPEKCLSVACLDKNELSDHLDAMDSNLDNLQTMLSSHGFSVDTSALLDLFSPSVTVPDMSLPDLDSSLASIQELLSPQEPPRPPEAENSSPDSGKQLVHYTAQPLFLLDPGSVDTGSNDLPVLFELGEGSYFSEGDGFAEDPTISLLTGSEPPKAKDPTVS
Consider B2, for which, in series [2], the “stoichiometry N” value is 3.
